Source: patent publication US12103951B2, “Use of CGRP receptor antagonists in neuroprotection and neurological disorders” (priority 2016, dated 2024)

Assay: Rat laser glaucoma model: weight of animals
Type: in vivo, Wistar rats

## NH2-Ala-Cys-Asp-Thr-Ala-Ala-Cys-Val-Leu-Gly-Arg-Leu-Ser-Gln-Glu-Leu-His-Arg-Leu-Gln-Thr-Tyr-Pro-Arg-Thr-Asn-Val-Gly-Ser-Lys-Ala-Phe-NH2 (H-ACDTAACVLGRLSQELHRLQTYPRTNVGSKAF-NH2; ends and bridges not checked) [SEQ ID NO: 1, peptide CGRP receptor antagonist]
Mann-Whitney U test, P>0.05
  difference in the weight between the groups: no significant difference
Mean ± SD, baseline
  Baseline weight: 538 ± 21 g
Mean ± SD, end of two-week study
  Weight prior to sacrifice: 524 ± 27 g
